Source: patent US20230242620A1 (published 2023)

Tests used:
Test in all cases: SPR Biacore T100, 21-4-3 captured on anti-mouse IgG, 500 nM analyte
SEQ ID NO: 77 = molecular target: T1, SEQ ID NO: 77
T1 construct: no mutations
Protocol: (§1) Binding measurements were performed using a Biacore T100 using a CM5 T120416 sensor chip, with running buffer HBS-EP+, 25° C. […] The anti-mouse IgG used was a polyclonal rabbit anti-mouse IgG antibodies reacting with all IgG subclasses, IgA and IgM (GE Healthcare; Cat #BR-1008-38; Lot #10056316). Immobilisation of the anti-mouse IgG was performed using manual amine coupling using a 7 minute injection of EDC/NHS for activation and a 7 minute injection of 1M ethanolamine HCl pH 8.5 for deactivation (Biacore, amine coupling kit).

SEQ ID NO: 78 = molecular target: T2, SEQ ID NO: 78
T2 construct: Q13R
T2 sequence (VHH, as listed by the source): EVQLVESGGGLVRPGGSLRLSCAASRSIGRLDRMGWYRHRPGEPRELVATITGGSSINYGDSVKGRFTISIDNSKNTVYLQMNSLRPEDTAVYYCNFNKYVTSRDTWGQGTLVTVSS
Protocol: as §1

SEQ ID NO: 39 = molecular target: T3, SEQ ID NO: 39
T3 construct: no mutations
T3 sequence (chain, as listed by the source): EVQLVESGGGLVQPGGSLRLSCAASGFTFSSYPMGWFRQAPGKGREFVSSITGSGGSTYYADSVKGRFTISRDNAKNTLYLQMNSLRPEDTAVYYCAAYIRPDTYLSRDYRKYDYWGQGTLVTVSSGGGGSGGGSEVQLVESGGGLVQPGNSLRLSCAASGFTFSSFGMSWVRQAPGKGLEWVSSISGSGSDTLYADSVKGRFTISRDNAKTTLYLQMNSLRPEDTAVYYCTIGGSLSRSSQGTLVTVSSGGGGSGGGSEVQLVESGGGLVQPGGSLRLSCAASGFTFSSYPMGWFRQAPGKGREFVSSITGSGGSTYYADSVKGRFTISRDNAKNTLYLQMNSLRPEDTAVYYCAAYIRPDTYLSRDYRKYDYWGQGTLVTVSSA
Protocol: as §1

SEQ ID NO: 87 = molecular target: T4, SEQ ID NO: 87
T4 construct: L11S, S112G, S113G
T4 sequence (VHH, as listed by the source): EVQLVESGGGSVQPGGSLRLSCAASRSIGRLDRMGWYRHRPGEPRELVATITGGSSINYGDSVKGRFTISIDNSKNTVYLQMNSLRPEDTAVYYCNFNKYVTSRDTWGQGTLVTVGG
Protocol: as §1

SEQ ID NO: 84 = molecular target: T5, SEQ ID NO: 84
T5 construct: S112G
T5 sequence (VHH, as listed by the source): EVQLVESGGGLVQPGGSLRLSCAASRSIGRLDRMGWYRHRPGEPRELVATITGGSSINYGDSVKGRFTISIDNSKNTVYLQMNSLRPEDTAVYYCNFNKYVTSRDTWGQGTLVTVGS
Protocol: as §1

SEQ ID NO: 75 = molecular target: T6, SEQ ID NO: 75
T6 construct: no mutations
T6 sequence (VHH, as listed by the source): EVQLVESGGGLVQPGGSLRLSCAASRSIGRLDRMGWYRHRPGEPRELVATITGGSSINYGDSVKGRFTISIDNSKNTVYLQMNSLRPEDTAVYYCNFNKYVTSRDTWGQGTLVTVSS
Protocol: as §1

SEQ ID NO: 71 = molecular target: T7, SEQ ID NO: 71
T7 construct: S113G
Protocol: as §1

SEQ ID NO: 66 = molecular target: T8, SEQ ID NO: 66
T8 construct: L11S
T8 sequence (VHH, as listed by the source): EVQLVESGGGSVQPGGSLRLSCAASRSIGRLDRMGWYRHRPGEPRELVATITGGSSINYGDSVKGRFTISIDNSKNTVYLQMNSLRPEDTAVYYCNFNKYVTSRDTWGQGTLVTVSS
Protocol: as §1

SEQ ID NO: 72 = molecular target: T9, SEQ ID NO: 72
T9 construct: S112G, S113G
Protocol: as §1

SEQ ID NO: 61 = molecular target: T10, SEQ ID NO: 61
T10 construct: no mutations
T10 sequence (chain, as listed by the source): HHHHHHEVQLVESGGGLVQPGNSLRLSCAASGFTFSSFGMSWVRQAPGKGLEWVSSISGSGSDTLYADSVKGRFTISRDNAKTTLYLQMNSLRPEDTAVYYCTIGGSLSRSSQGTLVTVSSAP
Protocol: as §1

SEQ ID NO: 41 = molecular target: T11, SEQ ID NO: 41
T11 construct: no mutations
T11 sequence (chain, as listed by the source): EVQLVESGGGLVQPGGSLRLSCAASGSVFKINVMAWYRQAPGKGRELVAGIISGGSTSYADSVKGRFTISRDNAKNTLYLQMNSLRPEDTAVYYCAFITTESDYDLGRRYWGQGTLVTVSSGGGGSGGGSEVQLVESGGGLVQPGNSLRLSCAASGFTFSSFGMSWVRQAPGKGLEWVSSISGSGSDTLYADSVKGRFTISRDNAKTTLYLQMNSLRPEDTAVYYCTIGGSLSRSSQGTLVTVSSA
Protocol: as §1

SEQ ID NO: 86 = molecular target: T12, SEQ ID NO: 86
T12 construct: L11S, T110Q
T12 sequence (VHH, as listed by the source): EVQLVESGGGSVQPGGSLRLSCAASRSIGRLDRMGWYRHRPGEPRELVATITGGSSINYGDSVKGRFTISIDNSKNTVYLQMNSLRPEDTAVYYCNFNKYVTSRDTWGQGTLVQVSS
Protocol: as §1

SEQ ID NO: 37 = molecular target: T13, SEQ ID NO: 37
T13 construct: no mutations
T13 sequence (chain, as listed by the source): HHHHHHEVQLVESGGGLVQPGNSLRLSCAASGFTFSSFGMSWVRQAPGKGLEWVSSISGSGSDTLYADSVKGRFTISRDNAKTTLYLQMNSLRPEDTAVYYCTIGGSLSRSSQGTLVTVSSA
Protocol: as §1

SEQ ID NO: 68 = molecular target: T14, SEQ ID NO: 68
T14 construct: P14A, L108Q
T14 sequence (VHH, as listed by the source): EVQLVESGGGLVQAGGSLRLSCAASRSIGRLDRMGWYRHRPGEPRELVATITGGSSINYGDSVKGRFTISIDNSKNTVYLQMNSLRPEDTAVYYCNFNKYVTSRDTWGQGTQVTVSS
Protocol: as §1

SEQ ID NO: 65 = molecular target: T15, SEQ ID NO: 65
T15 construct: P14A
T15 sequence (VHH, as listed by the source): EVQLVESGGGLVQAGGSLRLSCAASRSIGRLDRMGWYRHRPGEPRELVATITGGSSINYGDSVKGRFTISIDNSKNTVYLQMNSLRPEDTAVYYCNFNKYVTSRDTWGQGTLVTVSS
Protocol: as §1

SEQ ID NO: 42 = molecular target: T16, SEQ ID NO: 42
T16 construct: no mutations
Protocol: as §1

SEQ ID NO: 76 = molecular target: T17, SEQ ID NO: 76
T17 construct: no mutations
Protocol: as §1

SEQ ID NO: 43 = molecular target: T18, SEQ ID NO: 43
T18 construct: no mutations
Protocol: as §1

SEQ ID NO: 63 = molecular target: T19, SEQ ID NO: 63
T19 construct: no mutations
Protocol: as §1

SEQ ID NO: 89 = molecular target: T20, SEQ ID NO: 89
T20 construct: L11S, P14A, T110Q, S112G, S113G
Protocol: as §1

SEQ ID NO: 40 = molecular target: T21, SEQ ID NO: 40
T21 construct: no mutations
T21 sequence (chain, as listed by the source): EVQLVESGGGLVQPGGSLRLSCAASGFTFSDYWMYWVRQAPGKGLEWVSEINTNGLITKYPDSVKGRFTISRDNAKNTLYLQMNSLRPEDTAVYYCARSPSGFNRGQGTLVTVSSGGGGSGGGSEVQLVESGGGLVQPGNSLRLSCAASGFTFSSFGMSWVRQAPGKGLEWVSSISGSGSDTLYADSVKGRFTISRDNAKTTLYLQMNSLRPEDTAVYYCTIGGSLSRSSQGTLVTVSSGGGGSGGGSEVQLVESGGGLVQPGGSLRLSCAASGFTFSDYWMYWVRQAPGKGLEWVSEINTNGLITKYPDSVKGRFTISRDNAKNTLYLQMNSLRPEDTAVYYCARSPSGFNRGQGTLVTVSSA
Protocol: as §1

SEQ ID NO: 85 = molecular target: T22, SEQ ID NO: 85
T22 construct: L11S, T110Q, S112G, S113G
Protocol: as §1

SEQ ID NO: 45 = molecular target: T23, SEQ ID NO: 45
T23 construct: P14A, P41T, S62F, S74A, S82bN, R83K, L108Q
Protocol: as §1

SEQ ID NO: 44 = molecular target: T24, SEQ ID NO: 44
T24 construct: no mutations
Protocol: as §1

SEQ ID NO: 74 = molecular target: T25, SEQ ID NO: 74
T25 construct: no mutations
Protocol: as §1

SEQ ID NO: 88 = molecular target: T26, SEQ ID NO: 88
T26 construct: L11S, T110Q
Protocol: as §1

SEQ ID NO: 70 = molecular target: T27, SEQ ID NO: 70
T27 construct: T110Q
Protocol: as §1

SEQ ID NO: 67 = molecular target: T28, SEQ ID NO: 67
T28 construct: R83K
T28 sequence (VHH, as listed by the source): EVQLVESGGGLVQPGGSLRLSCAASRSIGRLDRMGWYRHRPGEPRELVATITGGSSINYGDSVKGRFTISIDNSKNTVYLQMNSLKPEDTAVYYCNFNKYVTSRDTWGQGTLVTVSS
Protocol: as §1

SEQ ID NO: 81 = molecular target: T29, SEQ ID NO: 81
T29 construct: L11V
Protocol: as §1

SEQ ID NO: 73 = molecular target: T30, SEQ ID NO: 73
T30 construct: S112G, S113G
Protocol: as §1

SEQ ID NO: 49 = molecular target: T31, SEQ ID NO: 49
T31 construct: V5L, I23A, E44G, A49S, A68T, A74S, T78L, W79Y, K83R, T110Q, Q108L
T31 sequence (VHH, as listed by the source): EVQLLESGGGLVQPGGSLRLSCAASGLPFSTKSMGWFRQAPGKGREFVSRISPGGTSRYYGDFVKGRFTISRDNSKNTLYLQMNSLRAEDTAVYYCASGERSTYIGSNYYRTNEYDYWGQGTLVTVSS
Protocol: as §1

SEQ ID NO: 55 = molecular target: T32, SEQ ID NO: 55
T32 construct: no mutations
Protocol: as §1

SEQ ID NO: 60 = molecular target: T33, SEQ ID NO: 60
T33 construct: no mutations
T33 sequence (chain, as listed by the source): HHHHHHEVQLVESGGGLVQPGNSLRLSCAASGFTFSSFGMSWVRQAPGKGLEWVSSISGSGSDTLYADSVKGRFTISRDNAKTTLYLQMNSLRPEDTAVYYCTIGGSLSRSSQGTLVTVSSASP
Protocol: as §1

SEQ ID NO: 52 = molecular target: T34, SEQ ID NO: 52
T34 construct: S112G
Protocol: as §1

SEQ ID NO: 64 = molecular target: T35, SEQ ID NO: 64
T35 construct: no mutations
T35 sequence (chain, as listed by the source): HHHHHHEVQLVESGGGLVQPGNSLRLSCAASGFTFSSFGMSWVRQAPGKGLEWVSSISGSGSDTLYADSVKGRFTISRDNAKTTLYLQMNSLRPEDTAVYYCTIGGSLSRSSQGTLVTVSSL
Protocol: as §1

SEQ ID NO: 59 = molecular target: T36, SEQ ID NO: 59
T36 construct: no mutations
Protocol: as §1

SEQ ID NO: 38 = molecular target: T37, SEQ ID NO: 38
T37 construct: no mutations
Protocol: as §1

SEQ ID NO: 83 = molecular target: T38, SEQ ID NO: 83
T38 construct: T87A
T38 sequence (VHH, as listed by the source): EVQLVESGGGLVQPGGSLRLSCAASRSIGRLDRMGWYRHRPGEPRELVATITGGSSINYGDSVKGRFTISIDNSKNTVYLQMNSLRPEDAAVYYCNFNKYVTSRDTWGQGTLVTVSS
Protocol: as §1

SEQ ID NO: 82 = molecular target: T39, SEQ ID NO: 82
T39 construct: P84A
T39 sequence (VHH, as listed by the source): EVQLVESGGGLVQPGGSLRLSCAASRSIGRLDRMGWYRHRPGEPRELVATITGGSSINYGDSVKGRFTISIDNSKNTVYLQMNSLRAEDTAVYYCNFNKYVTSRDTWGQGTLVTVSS
Protocol: as §1

SEQ ID NO: 79 = molecular target: T40, SEQ ID NO: 79
T40 construct: no mutations
Protocol: as §1

SEQ ID NO: 58 = molecular target: T41, SEQ ID NO: 58
T41 construct: no mutations
T41 sequence (chain, as listed by the source): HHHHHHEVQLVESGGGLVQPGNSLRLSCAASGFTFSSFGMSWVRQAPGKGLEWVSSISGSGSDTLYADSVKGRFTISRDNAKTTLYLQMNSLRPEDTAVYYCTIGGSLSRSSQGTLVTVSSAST
Protocol: as §1

SEQ ID NO: 48 = molecular target: T42, SEQ ID NO: 48
T42 construct: no mutations
Protocol: as §1

SEQ ID NO: 69 = molecular target: T43, SEQ ID NO: 69
T43 construct: L108Q
T43 sequence (VHH, as listed by the source): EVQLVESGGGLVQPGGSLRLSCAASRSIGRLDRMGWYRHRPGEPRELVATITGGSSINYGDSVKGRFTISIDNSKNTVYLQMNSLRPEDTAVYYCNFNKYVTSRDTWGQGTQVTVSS
Protocol: as §1

SEQ ID NO: 62 = molecular target: T44, SEQ ID NO: 62
T44 construct: no mutations
T44 sequence (chain, as listed by the source): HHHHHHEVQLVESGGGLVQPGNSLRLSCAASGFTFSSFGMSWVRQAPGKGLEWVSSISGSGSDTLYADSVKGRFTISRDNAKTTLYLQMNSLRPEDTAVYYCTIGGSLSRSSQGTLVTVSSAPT
Protocol: as §1

SEQ ID NO: 57 = molecular target: T45, SEQ ID NO: 57
T45 construct: no mutations
T45 sequence (chain, as listed by the source): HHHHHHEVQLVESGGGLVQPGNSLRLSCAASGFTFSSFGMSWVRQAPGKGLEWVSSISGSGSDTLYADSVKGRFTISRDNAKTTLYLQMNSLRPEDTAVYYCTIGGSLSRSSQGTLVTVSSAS
Protocol: as §1

SEQ ID NO: 47 = molecular target: T46, SEQ ID NO: 47
T46 construct: no mutations
T46 sequence (VHH, as listed by the source): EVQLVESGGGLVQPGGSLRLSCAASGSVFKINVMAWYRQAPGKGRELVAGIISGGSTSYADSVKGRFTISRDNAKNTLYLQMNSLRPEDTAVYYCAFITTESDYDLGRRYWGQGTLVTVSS
Protocol: as §1

SEQ ID NO: 80 = molecular target: T47, SEQ ID NO: 80
T47 construct: T110Q, S112G, S113G
T47 sequence (VHH, as listed by the source): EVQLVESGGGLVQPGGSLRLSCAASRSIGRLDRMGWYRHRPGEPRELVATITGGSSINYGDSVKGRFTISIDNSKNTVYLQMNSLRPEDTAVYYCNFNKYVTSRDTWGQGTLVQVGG
Protocol: as §1

B1: monoclonal antibody 21-4-3 (antibody, V domains shown)
VH: QIQLVQSGPELKKPGETVKISCKASGYTFTAYSMHWVKQAPGKGLKWMGWINTVTGEPAYADDFKGRFAFSLETSASTAYLQISSLKNEDTATYFCTRGLIHFYYWGQGTTLTVSS
VL: DIQMTQTPSSLSASLGGRVTITCKASQDIHNFISWYQHKPGKVPRLIIHDTSTLQPGIPSRFSGSGSGRDYSFSITNLEPEDIATYYCLHYDNLLRSFGGGTKLEIKR
notes: also called mAb21-4-3; mAb 21-4-3
- binding level as % of reference sequence (=100%) (SEQ ID NO: 77): 1%
- binding level as % of reference sequence (=100%) (SEQ ID NO: 78): 1%
- binding level as % of reference sequence (=100%) (SEQ ID NO: 39): 0%
- binding level as % of reference sequence (=100%) (SEQ ID NO: 87): 41%
- binding level as % of reference sequence (=100%) (SEQ ID NO: 84): 91%
- binding level as % of reference sequence (=100%) (SEQ ID NO: 75): 1%
- binding level as % of reference sequence (=100%) (SEQ ID NO: 71): 44%
- binding level as % of reference sequence (=100%) (SEQ ID NO: 66): 48%
- binding level as % of reference sequence (=100%) (SEQ ID NO: 72): 45%
- binding level as % of reference sequence (=100%) (SEQ ID NO: 61): 6%
- binding level as % of reference sequence (=100%) (SEQ ID NO: 41): 7%
- binding level as % of reference sequence (=100%) (SEQ ID NO: 86): 64%
- binding level as % of reference sequence (=100%) (SEQ ID NO: 37): 7%
- binding level as % of reference sequence (=100%) (SEQ ID NO: 68): 26%
- binding level as % of reference sequence (=100%) (SEQ ID NO: 65): 23%
- binding level as % of reference sequence (=100%) (SEQ ID NO: 42): 0%
- binding level as % of reference sequence (=100%) (SEQ ID NO: 76): 2%
- binding level as % of reference sequence (=100%) (SEQ ID NO: 43): 3%
- binding level as % of reference sequence (=100%) (SEQ ID NO: 63): 3%
- binding level as % of reference sequence (=100%) (SEQ ID NO: 89): 2%
- binding level as % of reference sequence (=100%) (SEQ ID NO: 40): 1%
- binding level as % of reference sequence (=100%) (SEQ ID NO: 85): 32%
- binding level as % of reference sequence (=100%) (SEQ ID NO: 45): 22%
- binding level as % of reference sequence (=100%) (SEQ ID NO: 44): 1%
- binding level as % of reference sequence (=100%) (SEQ ID NO: 74): 1%
- binding level as % of reference sequence (=100%) (SEQ ID NO: 88): 1%
- binding level as % of reference sequence (=100%) (SEQ ID NO: 70): 106%
- binding level as % of reference sequence (=100%) (SEQ ID NO: 67): 101%
- binding level as % of reference sequence (=100%) (SEQ ID NO: 81): 75%
- binding level as % of reference sequence (=100%) (SEQ ID NO: 73): 1%
- binding level as % of reference sequence (=100%) (SEQ ID NO: 49): 4%
- binding level as % of reference sequence (=100%) (SEQ ID NO: 55): 6%
- binding level as % of reference sequence (=100%) (SEQ ID NO: 60): 6%
- binding level as % of reference sequence (=100%) (SEQ ID NO: 52): 100%
- binding level as % of reference sequence (=100%) (SEQ ID NO: 64): 6%
- binding level as % of reference sequence (=100%) (SEQ ID NO: 59): 6%
- binding level as % of reference sequence (=100%) (SEQ ID NO: 38): 0%
- binding level as % of reference sequence (=100%) (SEQ ID NO: 83): 79%
- binding level as % of reference sequence (=100%) (SEQ ID NO: 82): 56%
- binding level as % of reference sequence (=100%) (SEQ ID NO: 79): 2%
- binding level as % of reference sequence (=100%) (SEQ ID NO: 58): 6%
- binding level as % of reference sequence (=100%) (SEQ ID NO: 48): 3%
- binding level as % of reference sequence (=100%) (SEQ ID NO: 69): 106%
- binding level as % of reference sequence (=100%) (SEQ ID NO: 62): 6%
- binding level as % of reference sequence (=100%) (SEQ ID NO: 57): 6%
- binding level as % of reference sequence (=100%) (SEQ ID NO: 47): 4%
- binding level as % of reference sequence (=100%) (SEQ ID NO: 80): 51%
